Publication PMC9098913, “In vitro reconstitution of Escherichia coli divisome activation” (Nature Communications, 2022)
Read-outs that look alike come from different tables or passages of the source.

T1: FtsA WT (E. coli, UniProt P0ABH0 1-420, Cy3 or Cy5 at the N-terminus in the labelled form (CLEPTGG peptide labelled with sulfo-Cyanine 3- or 5-maleimide, conjugated to the 5xGly tag by sortagging; degree of labelling 65-70%); unlabelled …)
T1 construct: FtsA, E. coli, cloned into vector pMAR19; called full-length in the results; also called wild-type FtsA; Cy5-FtsA WT; source: E. coli BL21, purified (Strep-Tactin, SUMO tag cleaved with Ulp1, SEC); not shown: TwinStrep-SUMO, N-terminal, cleaved; 5xGlycine tag, N-terminal, kept
T1 sequence (looked up): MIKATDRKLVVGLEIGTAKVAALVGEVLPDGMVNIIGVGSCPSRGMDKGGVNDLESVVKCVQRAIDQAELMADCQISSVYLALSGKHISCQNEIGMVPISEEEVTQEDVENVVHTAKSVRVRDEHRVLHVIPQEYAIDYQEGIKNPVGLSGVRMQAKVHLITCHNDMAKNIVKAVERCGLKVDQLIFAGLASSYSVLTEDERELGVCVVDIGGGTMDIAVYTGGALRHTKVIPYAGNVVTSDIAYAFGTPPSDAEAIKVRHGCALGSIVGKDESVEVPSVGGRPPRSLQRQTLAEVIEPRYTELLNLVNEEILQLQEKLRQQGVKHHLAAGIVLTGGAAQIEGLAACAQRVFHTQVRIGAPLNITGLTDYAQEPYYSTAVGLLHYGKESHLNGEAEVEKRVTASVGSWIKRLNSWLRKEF

T2: FtsA R286W (E. coli, UniProt P0ABH0 1-420, R286W, Cy3 or Cy5 at the N-terminus in the labelled form (labelled CLEPTGG peptide conjugated to the 5xGly tag by sortagging); unlabelled protein also used)
T2 construct: also called Cy5-FtsA R286W; hyperactive mutant; source: E. coli BL21, purified (as the wild type: Strep-Tactin, SUMO tag cleaved with Ulp1, SEC); not shown: TwinStrep-SUMO, N-terminal, cleaved; 5xGlycine tag, N-terminal, kept
T2 sequence (looked up): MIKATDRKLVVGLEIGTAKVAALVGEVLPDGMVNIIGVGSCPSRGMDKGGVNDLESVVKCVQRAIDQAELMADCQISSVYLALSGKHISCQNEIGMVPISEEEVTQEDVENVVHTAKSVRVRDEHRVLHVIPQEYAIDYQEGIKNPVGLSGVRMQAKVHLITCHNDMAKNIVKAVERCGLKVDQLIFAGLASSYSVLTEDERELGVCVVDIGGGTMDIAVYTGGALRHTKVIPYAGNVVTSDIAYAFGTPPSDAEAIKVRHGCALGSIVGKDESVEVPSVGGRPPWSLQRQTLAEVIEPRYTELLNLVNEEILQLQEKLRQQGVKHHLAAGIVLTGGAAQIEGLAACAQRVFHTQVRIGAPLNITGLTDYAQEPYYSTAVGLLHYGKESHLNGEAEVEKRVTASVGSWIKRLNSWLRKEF

T3: FtsA WT (1-405)-6xHis (E. coli, UniProt P0ABH0 1-405, Cy3 or Cy5 at the N-terminus in the labelled form (sortagging as for native FtsA))
T3 construct: FtsA, E. coli, residues 1-405; plasmid pNB4; Attached to membranes through Tris-NTA lipids by its His tag; also called FtsA-His6; FtsA WT-His6; source: E. coli BL21, purified (as native FtsA); not shown: TwinStrep-SUMO, N-terminal, cleaved; 5xGlycine tag, N-terminal, kept; His6, C-terminal, kept
T3 sequence (looked up): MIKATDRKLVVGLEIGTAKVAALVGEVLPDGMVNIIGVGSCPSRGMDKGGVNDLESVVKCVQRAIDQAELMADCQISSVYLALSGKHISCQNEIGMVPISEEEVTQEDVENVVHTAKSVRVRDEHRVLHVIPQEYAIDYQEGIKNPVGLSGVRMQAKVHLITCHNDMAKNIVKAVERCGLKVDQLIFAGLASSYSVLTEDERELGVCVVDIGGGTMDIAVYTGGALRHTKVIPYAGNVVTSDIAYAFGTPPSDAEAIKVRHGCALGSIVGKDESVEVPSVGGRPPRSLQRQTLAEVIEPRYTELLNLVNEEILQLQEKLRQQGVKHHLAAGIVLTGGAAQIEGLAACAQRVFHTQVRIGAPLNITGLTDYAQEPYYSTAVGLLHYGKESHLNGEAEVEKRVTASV

T4: FtsA R286W (1-405)-6xHis (E. coli, UniProt P0ABH0 1-405, R286W, Cy3 or Cy5 at the N-terminus in the labelled form (sortagging as for native FtsA))
T4 construct: FtsA, E. coli, residues 1-405 with R286W; the C-terminal amphipathic helix replaced by a 6xHistidine tag; plasmid pNB5; Attached to membranes through Tris-NTA lipids by its His tag; also called FtsA R286W-His6; R286W-His6; source: E. coli BL21, purified (as native FtsA); not shown: TwinStrep-SUMO, N-terminal, cleaved; 5xGlycine tag, N-terminal, kept; His6, C-terminal, kept
T4 sequence (looked up): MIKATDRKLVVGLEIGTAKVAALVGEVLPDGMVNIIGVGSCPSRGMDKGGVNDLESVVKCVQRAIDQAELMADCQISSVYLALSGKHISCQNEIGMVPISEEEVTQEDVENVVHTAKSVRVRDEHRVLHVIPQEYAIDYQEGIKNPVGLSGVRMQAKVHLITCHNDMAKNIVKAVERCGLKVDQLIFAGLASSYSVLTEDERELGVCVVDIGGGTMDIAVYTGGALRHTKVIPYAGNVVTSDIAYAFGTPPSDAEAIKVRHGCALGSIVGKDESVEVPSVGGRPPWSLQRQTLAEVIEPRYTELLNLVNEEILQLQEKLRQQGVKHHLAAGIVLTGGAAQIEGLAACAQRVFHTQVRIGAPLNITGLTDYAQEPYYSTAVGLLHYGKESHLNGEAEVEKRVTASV


Assays:
FtsA WT = target: T1, FtsA WT; assay: dual-colour TIRF microscopy on supported lipid bilayers; Cy5-FtsA WT or R286W (0.1-0.8 µM) and Alexa488-FtsZ (1.25 µM) on DOPC:DOPG bilayers; reaction buffer with 4 mM ATP, 4 mM GTP; settings: both partners purified
FtsA R286W = target: T2, FtsA R286W; assay: as above; settings: both partners purified
FtsA WT (1-405)-6xHis = target: T3, FtsA WT (1-405)-6xHis; assay: dual-colour TIRF microscopy on supported lipid bilayers; Cy5-labelled His-tagged FtsA (0.5-1 µM, washed) attached to bilayers with varied Tris-NTA lipid density; 1.25 µM Alexa488-FtsZ added; settings: both partners purified
FtsA R286W (1-405)-6xHis = target: T4, FtsA R286W (1-405)-6xHis; assay: as above; settings: both partners purified
FtsZ = settings: with FtsNcyto-His and His-tagged FtsA
Description: coefficients were close to zero and we could not observe complete recovery of the

FtsA = settings: Fig. S2f, intensity after FtsNcyto addition
Method: Subsequently, the chamber was washed 6x with reaction buffer, to remove bulk peptide. To visualize colocalization with either FtsZ or FtsA, either a mix of FtsA and Alexa488-FtsZ or Cy3-FtsA and FtsZ was added. […] The time-lapse videos were recorded for 10 min after the addition, with one frame per 2 s.
Time-lapse videos were first intensity-corrected and contrast-enhanced to avoid bleaching effects and simplify subsequent analysis. To remove contributions of X–Y drift, the videos were processed with the Linear Stack Alignment with SIFT plugin. Proper alignment was checked with the 3TP align plugin (J. A. Parker; Beth Israel Deaconess Medical Center, Boston). Subsequently, regions of interest (ROIs) in the center of the stacks were chosen for colocalization analysis. The Pearson’s correlation coefficient (PCC) was quantified with the Image CorrelationJ 1o plugin. To extract information about the relative ratio of FtsZ/FtsA molecules (slope of linear regression), we also used the Image CorrelationJ 1o plugin. As an output, the plugin provides a scatterplot of FtsZ vs FtsA intensities, to which we fitted a linear slope y=k⋅x+d , where k is the slope and d the offset. The slope was used as an estimate for the ratio of FtsA molecules below FtsZ filaments.

Molecule	binding result (FtsA WT)	binding result (FtsA R286W)	binding result (FtsA WT (1-405)-6xHis)	binding result (FtsA R286W (1-405)-6xHis)	mean recovery time of FtsZ (FtsZ)	Mean Intensity Fold Change (FtsA; 0.10 µM)	Mean Intensity Fold Change (FtsA; 0.20 µM)	Mean Intensity Fold Change (FtsA; 0.40 µM)
FtsZ (natural protein, E. coli, UniProt P0A9A6 1-383, looked up, Alexa Fluor 488 C5 maleimide on the cysteine of the added N-terminal residues AEGCGEL in the labelled form; unlabelled FtsZ also used, FtsZ, E. coli, cloned into a pTB146-derived vector; Present as GTP-dependent treadmilling filaments in the assays; also called Alexa488-FtsZ; FtsZ filaments; source: E. coli BL21, purified (Ni-NTA, His6-SUMO cleaved with Ulp1, polymerisation with CaCl2 and GTP); not shown: His6-SUMO, N-terminal, cleaved; seven residues AEGCGEL for maleimide coupling, N-terminal, kept) MFEPMELTNDAVIKVIGVGGGGGNAVEHMVRERIEGVEFFAVNTDAQALRKTAVGQTIQIGSGITKGLGAGANPEVGRNAADEDRDALRAALEGADMVFIAAGMGGGTGTGAAPVVAEVAKDLGILTVAVVTKPFNFEGKKRMAFAEQGITELSKHVDSLITIPNDKLLKVLGRGISLLDAFGAANDVLKGAVQGIAELITRPGLMNVDFADVRTVMSEMGYAMMGSGVASGEDRAEEAAEMAISSPLLEDIDLSGARGVLVNITAGFDLRLDEFETVGNTIRAFASDNATVVIGTSLDPDMNDELRVTVVATGIGMDKRPEITLVTNKQVQQPVMDRYQQHGMAPLTQEQKPVAKVVNDNAPQTAKEPDYLDIPAFLRKQAD	binds	binds	binds	binds	–	–	–	–
FtsZ: E. coli tubulin-like FtsZ forming treadmilling filaments; labelled with Alexa Fluor 488 (protein, Alexa Fluor 488 C5 maleimide on the cysteine of the added N-terminal residues AEGCGEL in the labelled form; unlabelled FtsZ also used; left off: His6-SUMO, N-terminal, cleaved | seven residues AEGCGEL) MFEPMELTNDAVIKVIGVGGGGGNAVEHMVRERIEGVEFFAVNTDAQALRKTAVGQTIQIGSGITKGLGAGANPEVGRNAADEDRDALRAALEGADMVFIAAGMGGGTGTGAAPVVAEVAKDLGILTVAVVTKPFNFEGKKRMAFAEQGITELSKHVDSLITIPNDKLLKVLGRGISLLDAFGAANDVLKGAVQGIAELITRPGLMNVDFADVRTVMSEMGYAMMGSGVASGEDRAEEAAEMAISSPLLEDIDLSGARGVLVNITAGFDLRLDEFETVGNTIRAFASDNATVVIGTSLDPDMNDELRVTVVATGIGMDKRPEITLVTNKQVQQPVMDRYQQHGMAPLTQEQKPVAKVVNDNAPQTAKEPDYLDIPAFLRKQAD	–	–	–	–	around 9.5 s	1.36	1.60	1.56
